According to paper PMC10977726 (2024):

T1: rabbit serum albumin (rabbit, UniProt P49065 25-608, biotin)
T1 chain: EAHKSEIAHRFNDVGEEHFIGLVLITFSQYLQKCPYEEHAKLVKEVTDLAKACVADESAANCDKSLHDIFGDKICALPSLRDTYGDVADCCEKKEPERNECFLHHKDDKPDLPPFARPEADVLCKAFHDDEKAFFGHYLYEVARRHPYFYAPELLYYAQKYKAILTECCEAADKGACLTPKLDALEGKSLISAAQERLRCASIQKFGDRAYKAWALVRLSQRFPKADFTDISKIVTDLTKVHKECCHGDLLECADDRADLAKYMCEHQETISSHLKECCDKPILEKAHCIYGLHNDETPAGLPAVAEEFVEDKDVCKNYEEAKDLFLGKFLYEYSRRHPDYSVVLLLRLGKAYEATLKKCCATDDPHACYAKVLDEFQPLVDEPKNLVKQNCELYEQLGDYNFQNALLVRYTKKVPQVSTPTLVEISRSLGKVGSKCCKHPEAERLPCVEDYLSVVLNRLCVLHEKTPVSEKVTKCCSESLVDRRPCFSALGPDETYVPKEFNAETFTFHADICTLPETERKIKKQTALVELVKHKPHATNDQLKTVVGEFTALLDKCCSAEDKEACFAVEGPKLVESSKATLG

B1: rabbit IgG Fc (domain or fragment)
chain: PSTCSKPTCPPPELLGGPSVFIFPPKPKDTLMISRTPEVTCVVVDVSQDDPEVQFTWYINNEQVRTARPPLREQQFNSTIRVVSTLPITHQDWLRGKEFKCKVHNKALPAPIEKTISKARGQPLEPKVYTMGPPREELSSRSVSLTCMINGFYPSDISVEWEKNGKAEDNYKTTPAVLDSDGSYFLYNKLSVPTSEWQRGDVFTCSVMHEALHNHYTQKSISRSPGK
modifications: biotin
B2: rat serum albumin (natural protein)
chain: EAHKSEIAHRFKDLGEQHFKGLVLIAFSQYLQKCPYEEHIKLVQEVTDFAKTCVADENAENCDKSIHTLFGDKLCAIPKLRDNYGELADCCAKQEPERNECFLQHKDDNPNLPPFQRPEAEAMCTSFQENPTSFLGHYLHEVARRHPYFYAPELLYYAEKYNEVLTQCCTESDKAACLTPKLDAVKEKALVAAVRQRMKCSSMQRFGERAFKAWAVARMSQRFPNAEFAEITKLATDVTKINKECCHGDLLECADDRAELAKYMCENQATISSKLQACCDKPVLQKSQCLAEIEHDNIPADLPSIAADFVEDKEVCKNYAEAKDVFLGTFLYEYSRRHPDYSVSLLLRLAKKYEATLEKCCAEGDPPACYGTVLAEFQPLVEEPKNLVKTNCELYEKLGEYGFQNAVLVRYTQKAPQVSTPTLVEAARNLGRVGTKCCTLPEAQRLPCVEDYLSAILNRLCVLHEKTPVSEKVTKCCSGSLVERRPCFSALTVDETYVPKEFKAETFTFHSDICTLPDKEKQIKKQTALAELVKHKPKATEDQLKTVMGDFAQFVDKCCKAADKDNCFATEGPNLVARSKEALA
modifications: biotin
B3: mouse IgG Fc (domain or fragment)
chain: VPRDCGCKPCICTVPEVSSVFIFPPKPKDVLTITLTPKVTCVVVDISKDDPEVQFSWFVDDVEVHTAQTQPREEQFNSTFRSVSELPIMHQDWLNGKEFKCRVNSAAFPAPIEKTISKTKGRPKAPQVYTIPPPKEQMAKDKVSLTCMITDFFPEDITVEWQWNGQPAENYKNTQPIMNTNGSYFVYSKLNVQKSNWEAGNTFTCSVLHEGLHNHHTEKSLSHSPGK
modifications: biotin

Key:
Assay in all cases: SPR
rabbit IgG Fc = biological target: B1
mouse IgG Fc = biological target: B3
protein A = protein A (UniProt P38507 37-477)
Ig-CON-5 (synthetic) = biological target: Ig-CON-5 (synthetic)
human serum albumin = human serum albumin (human, UniProt P02768 25-609, biotin)
rat serum albumin = biological target: B2
mouse serum albumin = mouse serum albumin (mouse, UniProt P07724 25-608, biotin)
rabbit serum albumin = biological target: T1, rabbit serum albumin
Hs-CHR-3 (synthetic) = biological target: Hs-CHR-3 (synthetic)

Chain of mouse serum albumin (P07724 25-608): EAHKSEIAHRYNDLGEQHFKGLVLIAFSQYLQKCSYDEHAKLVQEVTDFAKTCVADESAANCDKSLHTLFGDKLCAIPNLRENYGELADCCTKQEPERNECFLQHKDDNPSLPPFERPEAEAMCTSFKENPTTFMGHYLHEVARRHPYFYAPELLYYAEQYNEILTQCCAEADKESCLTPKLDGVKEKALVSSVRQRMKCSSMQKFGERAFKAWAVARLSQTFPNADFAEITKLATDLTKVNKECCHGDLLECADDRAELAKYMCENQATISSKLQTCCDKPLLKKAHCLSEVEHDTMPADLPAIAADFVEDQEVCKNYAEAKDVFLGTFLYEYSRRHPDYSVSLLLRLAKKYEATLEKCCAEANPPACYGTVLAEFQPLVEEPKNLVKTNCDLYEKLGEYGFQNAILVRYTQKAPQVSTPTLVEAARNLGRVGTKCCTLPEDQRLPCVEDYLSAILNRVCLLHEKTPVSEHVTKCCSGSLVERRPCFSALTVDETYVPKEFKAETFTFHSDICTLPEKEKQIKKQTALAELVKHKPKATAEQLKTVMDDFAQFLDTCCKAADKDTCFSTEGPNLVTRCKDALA

**Q.** How did the Kd (rabbit IgG Fc) turn out when GCQAHYWYRVWFCKQDSDCLAGCVCGPNGFCG [Ig-EET-1 (synthetic)] was run?
**A.** > 20000 nM

**Q.** What about the Kd (mouse IgG Fc) of the same binder?
**A.** > 20 µM

**Q.** Which Kd (rabbit IgG Fc) does the source give for VGECVRGRCSKISCCSQFGYCGKGPKYCG [Ig-AMP-1 (synthetic)] here?
**A.** ~1410 nM

**Q.** What about the Kd (mouse IgG Fc) of the same binder?
**A.** > 20 µM

**Q.** With B1 as the binder, how does the Kd (protein A) read?
**A.** 0.167 nM

**Q.** And the Kd (Ig-CON-5 (synthetic))?
**A.** > 30 nM

**Q.** How did the Kd (rabbit IgG Fc) turn out when VGECVRGRCSQISCCSQFGYCGKGPKYCG [Ig-AMP-3 (synthetic)] was run?
**A.** ~1850 nM

**Q.** With RLIEDICLPRWGCLWEDD [SA21] as the binder, how does the Kd (human serum albumin) read?
**A.** 650 nM

**Q.** And the Kd (rat serum albumin)?
**A.** 190 nM

**Q.** What about the Kd (mouse serum albumin) of the same binder?
**A.** 160 nM

**Q.** And the Kd (rabbit serum albumin)?
**A.** 100 nM

**Q.** B2 was tested. Which Kd (Hs-CHR-3 (synthetic)) did it give?
**A.** 2000 nM

**Q.** How did the Kd (protein A) turn out when B3 was run?
**A.** 1.5 nM

**Q.** What about the Kd (Ig-CON-5 (synthetic)) of the same binder?
**A.** ~1200 nM
